Test results taken from US20240409645A1 (DUALYX, published 2024).
Numbering of substitutions follows the chain as printed. Each block holds one binder with its values, some of them ahead of it.

Assays:
human IL-2Rβ [1] = molecular target: T1, human IL-2Rβ (human, UniProt P14784 27-240, limits assumed); assay: SPR off-rate ranking of P.E., human IL-2Rβ immobilized
T1 construct: Recombinant human IL-2Rβ protein, coated on ELISA plates or immobilized on a CM5 chip; also called hu IL-2R; interleukin 2 receptor β-chain
T1 sequence: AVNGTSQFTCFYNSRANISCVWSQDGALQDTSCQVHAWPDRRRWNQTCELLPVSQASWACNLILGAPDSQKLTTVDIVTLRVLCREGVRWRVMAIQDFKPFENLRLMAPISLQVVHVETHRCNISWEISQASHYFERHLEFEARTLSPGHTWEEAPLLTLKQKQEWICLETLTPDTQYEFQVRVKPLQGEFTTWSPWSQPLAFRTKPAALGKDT
Experimental: SPR was performed to determine dissociation rates using Biacore 3000 instrument (GE Healthcare). Briefly, human and mouse IL-2R proteins were immobilized on carboxylmethyl dextran sensor chip (CM5) at approximately 2500 RUs using amine coupling in acetate buffer (GE Healthcare). The VHH-containing P.E. were loaded with a flow rate of 30 uL/min and the off-rates were measured over a 120s period.

human IL-2Rβ [2] = molecular target: T1, human IL-2Rβ; assay: P.E. binding ELISA, human IL-2Rβ coated
Experimental: In a binding ELISA, human or mouse IL-2Rα, IL-2Rβ and IL-2Rγ proteins were coated directly on maxisorp microtiter plates overnight at 4° C. Free binding sites were blocked using 4% Marvel in PBS for 1 hour. Next, 1:5 dilution of P.E. in 1% Marvel/PBS were added to wells and incubated for 1 hour. […] Binding specificity was determined based on O.D. at 450 nm values compared to negative controls.

B1: FJ1427 P035MP06A08 (VHH)
VHH: EVQLVESGGGLVQAGESLRLSCAASGQYFSTYSMAWFRRTPGKEREFVTIISESGGIKEYVDSVKGRFTVSRDNAKNTVYLQMNSLKPEDTAVYYCAAARDWFARNEYQYDYWGQGTQVTVSS
notes: Soluble VHH in periplasmic extract (P.E.); also called Clone nr
- koff (human IL-2Rβ [1]): 0.000497 s⁻¹
- OD450 nm (P.E. binding ELISA) (human IL-2Rβ [2]): 0.44 OD450 nm

B2: FJ1427_P035MP06H02 (VHH)
VHH: QVQLVESGGGLVQAGGSLRLSCAVSGDVFVRYTMAWFRQAPGKEREFVASVTDSGRTTEYVDSVKGRFTVSRDNAKNTAYLQMNNLKPEDTAVYYCAANTDYFQIRSLDLNTWGQGTQVTVSS
notes: as for B1
- koff (human IL-2Rβ [1]): 0.000171 s⁻¹
- OD450 nm (P.E. binding ELISA) (human IL-2Rβ [2]): 0.371 OD450 nm

B3: FJ1427_P035MP06B04 (VHH)
VHH: B2 VHH
notes: as for B1
- koff (human IL-2Rβ [1]): 0.000188 s⁻¹
- OD450 nm (P.E. binding ELISA) (human IL-2Rβ [2]): 0.935 OD450 nm

B10: FJ1427 P035MP06F04 (VHH)
VHH: B2 VHH with A79V, N85S, D109R, L110A
notes: Soluble VHH in periplasmic extract (P.E.); also called Clone nr; 510
- koff (human IL-2Rβ [1]): 0.000487 s⁻¹
- OD450 nm (P.E. binding ELISA) (human IL-2Rβ [2]): 1.33 OD450 nm

B11: FJ1427_P035MP06A06 (VHH)
VHH: B2 VHH with V2L, S21A, V24L, E59D, D62A, K65Q, A75N, A79V, N85S, L110R
notes: as for B1
- koff (human IL-2Rβ [1]): 0.000631 s⁻¹
- OD450 nm (P.E. binding ELISA) (human IL-2Rβ [2]): 0.3 OD450 nm

B12: FJ1427 P035MP06E12 (VHH)
VHH: B2 VHH with V24A, E59D, A79V, N85A, R106K
notes: as for B1
- koff (human IL-2Rβ [1]): 0.000496 s⁻¹
- OD450 nm (P.E. binding ELISA) (human IL-2Rβ [2]): 0.271 OD450 nm

B14: FJ1427_P035MP06A05 (VHH)
VHH: B2 VHH with E59D, D62H, A79V, R106K, L110A
notes: as for B1
- koff (human IL-2Rβ [1]): 0.00118 s⁻¹
- OD450 nm (P.E. binding ELISA) (human IL-2Rβ [2]): 0.149 OD450 nm

B15: FJ1427 P035MP06D08 (VHH)
VHH: B2 VHH with S123L
notes: Soluble VHH in periplasmic extract (P.E.); also called Clone nr; 540
- koff (human IL-2Rβ [1]): 0.000209 s⁻¹
- OD450 nm (P.E. binding ELISA) (human IL-2Rβ [2]): 0.836 OD450 nm

B16: FJ1427 P035MP06C09 (VHH)
VHH: B2 VHH with Q1E, V24A, A40T, A79V, D109R, L110A
notes: as for B1
- koff (human IL-2Rβ [1]): 0.00101 s⁻¹
- OD450 nm (P.E. binding ELISA) (human IL-2Rβ [2]): 0.69 OD450 nm

B18: FJ1427_P035MP06A09 (VHH)
VHH: B2 VHH with Q1E, V24A, E59D, A79V, R106K, L110R
notes: as for B1
- koff (human IL-2Rβ [1]): 0.000947 s⁻¹
- OD450 nm (P.E. binding ELISA) (human IL-2Rβ [2]): 0.192 OD450 nm

B20: FJ1427 P035MP06B06 (VHH)
VHH: B2 VHH with Q1E, S17P
notes: as for B1
- koff (human IL-2Rβ [1]): 0.000324 s⁻¹
- OD450 nm (P.E. binding ELISA) (human IL-2Rβ [2]): 1.42 OD450 nm

Continued, values first:

- koff (human IL-2Rβ [1]): 0.000196 s⁻¹
- OD450 nm (P.E. binding ELISA) (human IL-2Rβ [2]): 0.239 OD450 nm
B4: FJ1427_P035MP06H03 (VHH)
VHH: B2 VHH
notes: as for B1

- koff (human IL-2Rβ [1]): 0.000198 s⁻¹
- OD450 nm (P.E. binding ELISA) (human IL-2Rβ [2]): 0.974 OD450 nm
B5: FJ1427_P035MP06E04 (VHH)
VHH: B2 VHH
notes: as for B1

- koff (human IL-2Rβ [1]): 0.000621 s⁻¹
- OD450 nm (P.E. binding ELISA) (human IL-2Rβ [2]): 0.189 OD450 nm
B6: FJ1427_P035MP06D04 (VHH)
VHH: B2 VHH with V5Q, A23V, S50V, A79V, L108V, L110N, T112A
notes: as for B1

- koff (human IL-2Rβ [1]): 0.000935 s⁻¹
- OD450 nm (P.E. binding ELISA) (human IL-2Rβ [2]): 0.224 OD450 nm
B7: FJ1427_P035MP06F06 (VHH)
VHH: B2 VHH with V24A, E59D, A79V, D109E, L110F
notes: as for B1

- koff (human IL-2Rβ [1]): 0.000885 s⁻¹
- OD450 nm (P.E. binding ELISA) (human IL-2Rβ [2]): 0.59 OD450 nm
B8: FJ1427_P035MP06H05 (VHH)
VHH: B2 VHH with G10R, A23V, S50V, D62G, A79V, L108V, L110N, T112A
notes: Soluble VHH in periplasmic extract (P.E.); also called Clone nr; 520

- koff (human IL-2Rβ [1]): 0.00223 s⁻¹
- OD450 nm (P.E. binding ELISA) (human IL-2Rβ [2]): 0.264 OD450 nm
B9: FJ1427_P035MP06B10 (VHH)
VHH: B2 VHH with V24A, F29L, V93I
notes: Soluble VHH in periplasmic extract (P.E.); also called Clone nr; 554

- koff (human IL-2Rβ [1]): 0.000619 s⁻¹
- OD450 nm (P.E. binding ELISA) (human IL-2Rβ [2]): 0.677 OD450 nm
B13: FJ1427_P035MP06G02 (VHH)
VHH: B2 VHH with Q1E, A23V, G42R, S50V, A79V, L108V, L110N, T112A
notes: as for B1

- koff (human IL-2Rβ [1]): 0.00029 s⁻¹
- OD450 nm (P.E. binding ELISA) (human IL-2Rβ [2]): 1.02 OD450 nm
B17: FJ1427_P035MP06D03 (VHH)
VHH: B2 VHH with V24A, V93I
notes: Soluble VHH in periplasmic extract (P.E.); also called Clone nr; 500

- koff (human IL-2Rβ [1]): 0.000286 s⁻¹
- OD450 nm (P.E. binding ELISA) (human IL-2Rβ [2]): 0.255 OD450 nm
B19: FJ1427_P035MP06G08 (VHH)
VHH: B2 VHH with V5Q, V24A, D109N
notes: Soluble VHH in periplasmic extract (P.E.); also called Clone nr; 543

- koff (human IL-2Rβ [1]): 0.000751 s⁻¹
- OD450 nm (P.E. binding ELISA) (human IL-2Rβ [2]): 0.58 OD450 nm
B21: FJ1427_P035MP06C05 (VHH)
VHH: B2 VHH with Q1E, A23V, E44G, S50V, A79V, L108V, L110N, T112A
notes: as for B1
